Measured values taken from US20110143993A1, “ENDOTHELIAL BASEMENT MEMBRANE TARGETING PEPTIDE LIGANDS” (The Brigham and Women's Hospital, Inc., priority 2009, published 2011).
No end group written: not given here.

Experiments:
[1] = target: Matrigel growth factor reduced LDEV free (basement membrane extract rich in collagen IV and laminin); test: competition ELISA: synthetic peptide (10^-5-10^-10 M) against 10^9 pfu cognate phage clone on Matrigel-coated plate, anti-M13/ABTS
[2] = target: human collagen IV (human) (UniProt P02462); test: phage titer count of eluted phage, input 10^12/mL p.f.u., against random library R0, n=3
[3] = target: Matrigel growth factor reduced LDEV free (basement membrane extract rich in collagen IV and laminin); test: competition of phage-displayed peptide against synthetic peptide on Matrigel

**Q.** For KIWKLPQGGGC-NH2 [synthetic peptide modeled after phage clone C-10 (KIWKLPQ with C-terminal GGGC linker, amidated)], which IC50 [1] is on record?
**A.** Its IC50 is 917 nM.

**Q.** With KVWSLPQGGGC-NH2 [synthetic peptide modeled after phage clone A-8 (KVWSLPQ with C-terminal GGGC linker, amidated)] as the binder, how does the IC50 [1] read?
**A.** Its IC50 is 1200 nM.

**Q.** Which IC50 [1] does the source give for KIFVWPYGGGC-NH2 [synthetic peptide modeled after phage clone A-9 (KIFVWPY with C-terminal GGGC linker, amidated)] here?
**A.** The IC50 was 551 nM.

**Q.** KLWVLPK (peptide, not shown: large carriers) [phage clone C-11 (KLWVLPK displayed on pIII of M13 phage)] was tested. Which fold binding compared to the library (R0), phage titer [2] did it give?
**A.** The fold binding compared to the library (R0), phage titer was 900 fold.

**Q.** With KLWVLPKGGGC-NH2 [synthetic peptide modeled after phage clone C-11 (…-Am)] as the binder, how does the IC50 [3] read?
**A.** Its IC50 is 114 nM.

**Q.** And the IC50 [1]?
**A.** The IC50 was 117 nM.
